T1: TM4SF19 in which 3HA was tagged at the N-terminus (human TM4SF19, NP_612470.2 isoform 1) (human, UniProt Q96DZ7 1-209)
T1 construct: also called 3HA-TM4SF19; TM4SF19 tagged with 3HA in N-terminus; not shown: 3HA tag at the N-terminus
T1 sequence: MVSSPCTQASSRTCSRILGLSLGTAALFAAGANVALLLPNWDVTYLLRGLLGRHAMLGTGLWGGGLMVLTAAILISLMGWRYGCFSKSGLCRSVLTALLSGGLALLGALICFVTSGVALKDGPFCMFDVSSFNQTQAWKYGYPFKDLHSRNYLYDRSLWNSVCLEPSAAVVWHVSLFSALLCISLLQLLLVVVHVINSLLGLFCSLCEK


Experiments:
[1] = molecular target: T1, TM4SF19 in which 3HA was tagged at the …; assay: immunoprecipitation, 3HA- and 3Flag-tagged TM4SF19 in 293T cells
Excerpt: To confirm whether TM4SF19 is involved in cell-to-cell interactions, HA- or flag-tagged TM4SF19 was manufactured. TM4SF19 in which 3HA was tagged at the N-terminus, a wild-type in which 3Flag was tagged at the N-terminus, and a TM4SF19-deletion mutant were subjected to transient overexpression in 293T cells to confirm binding through immunoprecipitation.

[2] = molecular target: T1, TM4SF19 in which 3HA was tagged at the …; assay: immunoprecipitation, 293T cells
Excerpt: In the same manner as described above, by the transient overexpression of TM4SF19 in which 3HA was tagged at the N-terminus, a wild-type in which 3Flag was tagged at the N-terminus, and a TM4SF19 deletion mutant in 293T cells, binding was confirmed through immunoprecipitation.

Row | binding result [1] | binding result [2] | Binder
1 | binds | – | wild-type TM4SF19 in which 3Flag was tagged at the N-terminus (human TM4SF19) (other, Overexpressed in 293T cells (for the integrins: 293T or Raw 264.7 cells) and tested by immunoprecipitation; also called 3Flag-hTM4SF19; TM4SF19 wt; not shown: 3Flag tag at the N-terminus) MVSSPCTQASSRTCSRILGLSLGTAALFAAGANVALLLPNWDVTYLLRGLLGRHAMLGTGLWGGGLMVLTAAILISLMGWRYGCFSKSGLCRSVLTALLSGGLALLGALICFVTSGVALKDGPFCMFDVSSFNQTQAWKYGYPFKDLHSRNYLYDRSLWNSVCLEPSAAVVWHVSLFSALLCISLLQLLLVVVHVINSLLGLFCSLCEK
2 | – | binds | hTm4sf19 94-196 (only aa 94-196 of hTM4SF19 remains, other sequences deleted) (other, Expresses transmembrane 3, extracellular region 2 (EC2) and transmembrane 4 of TM4SF19; overexpressed in 293T cells; not shown: tag not expressly stated for this mutant (the other mutants carry 3Flag)) VLTALLSGGLALLGALICFVTSGVALKDGPFCMFDVSSFNQTQAWKYGYPFKDLHSRNYLYDRSLWNSVCLEPSAAVVWHVSLFSALLCISLLQLLLVVVHVI
3 | – | no binding | hTM4SF19 94-196Δ (3Flag-tagged deletion mutant lacking transmembrane 3, extracellular region 2 and transmembrane 4) (other, the kept ranges are worked out from the printed deletion limits; not shown: 3Flag tag) MVSSPCTQASSRTCSRILGLSLGTAALFAAGANVALLLPNWDVTYLLRGLLGRHAMLGTGLWGGGLMVLTAAILISLMGWRYGCFSKSGLCRSNSLLGLFCSLCEK

Reference: patent US20240132571A1 (MEDPACTO, published 2024)
